Measurements reported in patent US20210388087A1 (Chugai, published 2021).
Residue numbers refer to the chain shown, from its start. Names may count otherwise.

T1: Human CD3eg linker (human)
T1 construct: single-chain construct; also called recombinant human CD3
T1 chain: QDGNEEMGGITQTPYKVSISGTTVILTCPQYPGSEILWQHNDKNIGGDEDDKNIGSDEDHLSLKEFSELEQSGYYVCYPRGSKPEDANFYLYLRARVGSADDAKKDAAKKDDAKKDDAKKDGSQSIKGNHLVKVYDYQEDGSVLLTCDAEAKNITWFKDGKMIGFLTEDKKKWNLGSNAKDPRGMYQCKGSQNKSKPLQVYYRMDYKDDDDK

B1: dBBDu183H D101E/dBBDu072L (antibody, name in Kabat numbering, V domains shown)
VH: QVQLVESGGGLVQPGRSLRLSCAASGFTFSNAWMHWVRQAPGKGLEWVAQIKDKGNAYAAYYAPSVKGRFTISRDDSKNSIYLQMNSLKTEDTAVYYCHYVHYASASTVLPAFGVEAWGQGTTVTVSS
VL: DIVMTQSPLSLPVTPGEPASISCQASQELVHMNRNTYLHWYQQKPGQAPRLLIYKVSNRFPGVPDRFSGSGSGTDFTLKISRVEAEDVGVYYCAQGTSVPFTFGQGTKLEIK
B2: dBBDu183H F100gH/dBBDu072L (antibody, name in Kabat numbering, V domains shown)
VH: B1 VH with F113H, E116D
VL: B1 VL
B3: dBBDu183H D101Q/dBBDu072L (antibody, name in Kabat numbering, V domains shown)
VH: B1 VH with E116Q
VL: B1 VL
B4: dBBDu183H F100gQ/dBBDu072L (antibody, name in Kabat numbering, V domains shown)
VH: B1 VH with F113Q, E116D
VL: B1 VL
B5: dBBDu183H F100gY/dBBDu072L (antibody, name in Kabat numbering, V domains shown)
VH: B1 VH with F113Y, E116D
VL: B1 VL
B6: dBBDu183H F100gD/dBBDu072L (antibody, name in Kabat numbering, V domains shown)
VH: B1 VH with F113D, E116D
VL: B1 VL
B7: dBBDu183H D101N/dBBDu072L (antibody, name in Kabat numbering, V domains shown)
VH: B1 VH with E116N
VL: B1 VL
B8: dBBDu183H G65E/dBBDu072L (antibody, name in Kabat numbering, V domains shown)
VH: B1 VH with G68E, E116D
VL: B1 VL
B9: dBBDu183H G100hN/dBBDu072L (antibody, name in Kabat numbering, V domains shown)
VH: B1 VH with G114N, E116D
VL: B1 VL
B10: dBBDu183H F100gT/dBBDu072L (antibody, name in Kabat numbering, V domains shown)
VH: B1 VH with F113T, E116D
VL: B1 VL
B11: dBBDu183H G65N/dBBDu072L (antibody, name in Kabat numbering, V domains shown)
VH: B1 VH with G68N, E116D
VL: B1 VL
B12: dBBDu183H G100hE/dBBDu072L (antibody, name in Kabat numbering, V domains shown)
VH: B1 VH with G114E, E116D
VL: B1 VL
B13: dBBDu183H F100gV/dBBDu072L (antibody, name in Kabat numbering, V domains shown)
VH: B1 VH with F113V, E116D
VL: B1 VL
B14: dBBDu183H G65K/dBBDu072L (antibody, name in Kabat numbering, V domains shown)
VH: B1 VH with G68K, E116D
VL: B1 VL
B15: dBBDu183H F100gN/dBBDu072L (antibody, name in Kabat numbering, V domains shown)
VH: B1 VH with F113N, E116D
VL: B1 VL
B16: dBBDu183H D101S/dBBDu072L (antibody, name in Kabat numbering, V domains shown)
VH: B1 VH with E116S
VL: B1 VL
B17: dBBDu183H G65V/dBBDu072L (antibody, name in Kabat numbering, V domains shown)
VH: B1 VH with G68V, E116D
VL: B1 VL
B18: dBBDu183H G100hF/dBBDu072L (antibody, name in Kabat numbering, V domains shown)
VH: B1 VH with G114F, E116D
VL: B1 VL
B19: dBBDu183H D101Y/dBBDu072L (antibody, name in Kabat numbering, V domains shown)
VH: B1 VH with E116Y
VL: B1 VL
B20: dBBDu183H F100gE/dBBDu072L (antibody, name in Kabat numbering, V domains shown)
VH: B1 VH with F113E, E116D
VL: B1 VL
B21: dBBDu183H D101G/dBBDu072L (antibody, name in Kabat numbering, V domains shown)
VH: B1 VH with E116G
VL: B1 VL
B22: dBBDu183H F100gR/dBBDu072L (antibody, name in Kabat numbering, V domains shown)
VH: B1 VH with F113R, E116D
VL: B1 VL
B23: dBBDu183H G100hH/dBBDu072L (antibody, name in Kabat numbering, V domains shown)
VH: B1 VH with G114H, E116D
VL: B1 VL
B24: dBBDu183H G65F/dBBDu072L (antibody, name in Kabat numbering, V domains shown)
VH: B1 VH with G68F, E116D
VL: B1 VL
B25: dBBDu183H G65T/dBBDu072L (antibody, name in Kabat numbering, V domains shown)
VH: B1 VH with G68T, E116D
VL: B1 VL
B26: dBBDu183H G65H/dBBDu072L (antibody, name in Kabat numbering, V domains shown)
VH: B1 VH with G68H, E116D
VL: B1 VL
B27: dBBDu183H F100gK/dBBDu072L (antibody, name in Kabat numbering, V domains shown)
VH: B1 VH with F113K, E116D
VL: B1 VL
B28: dBBDu183H D101R/dBBDu072L (antibody, name in Kabat numbering, V domains shown)
VH: B1 VH with E116R
VL: B1 VL
B29: dBBDu183H F100gS/dBBDu072L (antibody, name in Kabat numbering, V domains shown)
VH: B1 VH with F113S, E116D
VL: B1 VL
B30: dBBDu183H F100gW/dBBDu072L (antibody, name in Kabat numbering, V domains shown)
VH: B1 VH with F113W, E116D
VL: B1 VL
B31: dBBDu183H G100hK/dBBDu072L (antibody, name in Kabat numbering, V domains shown)
VH: B1 VH with G114K, E116D
VL: B1 VL
B32: dBBDu183H D101F/dBBDu072L (antibody, name in Kabat numbering, V domains shown)
VH: B1 VH with E116F
VL: B1 VL
B33: dBBDu183H F100gG/dBBDu072L (antibody, name in Kabat numbering, V domains shown)
VH: B1 VH with F113G, E116D
VL: B1 VL
B34: dBBDu183H G100hD/dBBDu072L (antibody, name in Kabat numbering, V domains shown)
VH: B1 VH with G114D, E116D
VL: B1 VL
B35: dBBDu183H D101V/dBBDu072L (antibody, name in Kabat numbering, V domains shown)
VH: B1 VH with E116V
VL: B1 VL
B36: dBBDu183H G65D/dBBDu072L (antibody, name in Kabat numbering, V domains shown)
VH: B1 VH with G68D, E116D
VL: B1 VL
B37: dBBDu183H G65Y/dBBDu072L (antibody, name in Kabat numbering, V domains shown)
VH: B1 VH with G68Y, E116D
VL: B1 VL
B38: dBBDu183H D101K/dBBDu072L (antibody, name in Kabat numbering, V domains shown)
VH: B1 VH with E116K
VL: B1 VL
B39: dBBDu183H G65R/dBBDu072L (antibody, name in Kabat numbering, V domains shown)
VH: B1 VH with G68R, E116D
VL: B1 VL
B40: dBBDu183H G65Q/dBBDu072L (antibody, name in Kabat numbering, V domains shown)
VH: B1 VH with G68Q, E116D
VL: B1 VL
B41: dBBDu183H G65W/dBBDu072L (antibody, name in Kabat numbering, V domains shown)
VH: B1 VH with G68W, E116D
VL: B1 VL
B42: dBBDu183H D101T/dBBDu072L (antibody, name in Kabat numbering, V domains shown)
VH: B1 VH with E116T
VL: B1 VL
B43: dBBDu183H D101H/dBBDu072L (antibody, name in Kabat numbering, V domains shown)
VH: B1 VH with E116H
VL: B1 VL
B44: dBBDu183H D101W/dBBDu072L (antibody, name in Kabat numbering, V domains shown)
VH: B1 VH with E116W
VL: B1 VL
B45: dBBDu183H G65S/dBBDu072L (antibody, name in Kabat numbering, V domains shown)
VH: B1 VH with G68S, E116D
VL: B1 VL

Molecular target: T1, Human CD3eg linker
Assay: SPR, vs unmutated H183/L072

| fold change of affinity [fold] | Binder |
| --- | --- |
| 0 | B1 |
| 1.8 | B2 |
| 0 | B3 |
| 1.3 | B4 |
| 1.2 | B5 |
| 0.3 | B6 |
| 1.1 | B7 |
| 1 | B8 |
| 0.8 | B9 |
| 1.3 | B10 |
| 0.9 | B11 |
| 0.5 | B12 |
| 1.2 | B13 |
| 1.1 | B14 |
| 0.9 | B15 |
| 0.6 | B16 |
| 1.2 | B17 |
| 0.4 | B18 |
| 0 | B19 |
| 0.5 | B20 |
| 0.4 | B21 |
| 3.4 | B22 |
| 1.5 | B23 |

| fold change of affinity [fold] | Binder |
| --- | --- |
| 0.9 | B24 |
| 1 | B25 |
| 0.9 | B26 |
| 1.7 | B27 |
| 0 | B28 |
| 1.4 | B29 |
| 0.9 | B30 |
| 0.3 | B31 |
| 2.5 | B32 |
| 1.2 | B33 |
| 0.5 | B34 |
| 0.5 | B35 |
| 1 | B36 |
| 1 | B37 |
| 0 | B38 |
| 1 | B39 |
| 1 | B40 |
| 1 | B41 |
| 0.2 | B42 |
| 0.4 | B43 |
| 0 | B44 |
| 1 | B45 |
